# Measured values from patent US9850293B2, “Targeting trastuzumab-resistant HER2+ breast cancer with a HER3-targeting nanoparticle” (priority 2014, dated 2017).
# What was measured:
# MDA-MB-435 (HER2+) = assay: Targeted toxicity, cell survival by MTT assay; assay type: cell-based, human
# Protocol: FIG. 7 illustrates targeted toxicity. […] Cell titer was determined by metabolic (i.e. MTT) assay. FIG. 7 upper panel illustrates the effect of HerDox on MDA-MB-231 (HER2−) and MDA-MB-435 (HER2+) cell survival. Relative surviving cell numbers are represented as a % of corresponding untreated cells. […] Relative survival (as % of untreated cells) is shown for Day 3 of treatment.
# FIG. 8 illustrates receptor specificity. MDA-MB-435 (HER2+) cells were incubated with free ligand (eHRG) at 10× molar excess of HerDox for one hour at 4° C. Media was aspirated to remove free eHRG and fresh media containing HerDox (0.5 μM) was added to cells. Cell survival was measured by MTT assay and represented as a % of relative untreated cell numbers.
# N=3. […] Bar, about 4 μm. […] (E) compares HerDox and Dox on off-target tissue. […] Green fluorescence in nuclei indicates apoptosis (positive TUNEL stain).
# By three days, HerDox reduced HER2+ cell numbers by over 75% whereas HER2− cell survival was unaffected (FIG. 7). […] These findings emphasize the importance of targeting by showing that the untargeted drug affects nontarget (i.e. HER2−) cells. […] To test receptor targeting, the inventors used free heregulin ligand (Her or eHRG) as a competitive inhibitor. […] As a final in vitro challenge, the inventors tested whether HerDox induces toxicity specifically to HER2+ cells in a mixed culture of HER2+ and HER2− breast cancer cells. To do this, the inventors produced a HER2− cell line tagged with green fluorescent protein (GFP) for cell identification in the mixed culture (FIG. 9-A). […] Altogether, these findings indicate that HerDox has the capacity to preferentially target toxicity to HER2+ cells. […] In serum-containing media, no such loss from HerDox is detectable. […] Co-migration of HerPBK10 bands further verified that the conjugates remained intact in the cell media.
# [1] = Stability in mouse whole blood; assay type: in vitro ADME; settings: 0.12 mg/mL Dox, 37° C., up to one hour
# Protocol: FIG. 13 illustrates stability in mouse whole blood. […] As 0.5 mM EDTA was used as an anticoagulant, HerDox in EDTA alone (− blood) was processed in parallel. Bars represent fluorescence of retained (retentates) or released (filtrates) Dox as a percentage of the total fluorescence of each sample. Scale of Y-axis is adjusted to show presence of filtrate samples. N=3 per treatment.
# (A) depicts a graphic of HerDox formed by non-covalent, serum-stable self-assembly, showing HerPBK10 with functional domains delineated, and electrophilic binding with Dox-intercalated ds-oligo. (B) depicts a CryoEM image of HerDox particles. (C) is a HPLC chromatogram of HerDox showing elution profile of Dox absorbance. […] (D) illustrates the protection of ds-oligo from serum nuclease digestion by HerPBK10. The ds-oligo was incubated for 20 min in 100% mouse serum (Abcam, Cambridge, Mass., USA) before PAGE and EtBr staining to visualize the DNA. (E) illustrates that HerDox remains stable in blood. […] N=3. *, p<0.05, compared to respective retentates.
# As the anticoagulant, 0.5 mM EDTA, was present in the blood collection, parallel samples were incubated at 37° C. in EDTA alone. Samples representing input HerDox (before incubation in blood) were incubated at 37° C. in HEPES-buffered saline.
# HER2+ tumors = assay: HerDox and Dox biodistribution (Dox fluorescence imaging)
# Text: FIG. 11 (A) depicts imaging of live mice after IV delivery of HerDox. Tumors are indicated by arrows.
# [2] = Off-target toxicity in treated mice (weight, heart, liver)
# Protocol: Relative cell survival (as % of untreated cells) on day 3 of treatment. (+Her), pre-incubation of MDA-MB-435 cells with receptor-blocking ligand (recombinant heregulin) before receiving HerDox. N=3. […] Tissues were harvested from independently injected mice euthanized at indicated time points after injection and fluorescence intensity/tissue acquired using a multimode imager. […] Bar, about 4 μm. […] Day 0=3 days before tail vein injections (mice received daily injections for 7 days). […] Day 0=3 days before tail vein injections (mice received daily injections for 7 days). […] Micrographs (20× magnification) in (E) also show representative H&E stained specimens of myocardia and immunofluorescent specimens of livers from treated mice. Green fluorescence in nuclei indicates apoptosis (positive TUNEL stain).
# JIMT-1 cell line = assay: Tumor cell killing in culture, pre-existing resistance; assay type: cell-based, human; settings: JIMT-1, dose-dependent, maximum
# Protocol: N=3. *, p<0.05 compared to parental. […] N=3. […] Treatments were compared to mock (saline)-treatment. […] N=3. *, p<0.05 compared to parental. […] N=3.
# The efficacy of HerDox was also examined on a cell line with pre-existing resistance.
# The contribution of HER3 to targeted toxicity was evaluated by assessing whether pre-adsorbing HerDox with a peptide comprising the ligand-binding domain of HER3 blocked cytotoxicity.
# [3] = single tail vein injection, live imaging
# [4] = tissues harvested ~3 h after injection
molecule,measurement,setting,value
"HerDox: non-covalent complex of HerPBK10, double-stranded oligonucleotide and intercalated Dox (Unit A+Unit B+Unit C) (conjugate, left off: small tags and cut ends) SHLVKCAEKEKTFCVNGGECFMVKDLSNPSRYLCKCQPGFTGARCTENVPMKVQNQEKAEELYQKMRRAAMYEEGPPPSYESVVSAAPVAAALGSPFDAPLDPPFVPPRYLRPTGGRNSIRYSELAPLFDTTRVYLVDNKSTDVASLNYQNDHSNFLTTVIQNNDYSPGEASTQTINLDDRSHWGGDLKTILHTNMPNVNEFMFTNKFKARVMVSRLPTKDNQVELKYEWVEFTLPEGNYSETMTIDLMNNAIVEHYLKVGRQNGVLESDIGVKFDTRNFRLGFDPVTGLVMPGVYTNEAFHPDIILLPGCGVDFTHSRLSNLLGIRKRQPFQEGFRITYDDLEGGNIPALLDVDAYQASLKDDTEQGGGGAGGSNSSGSGAEENSNAAAAAMQPVEDMNDHAIRGDTFATRAEEKRAEAEAAAEAAAPAAQPEVEKPQKKPVIKPLTEDSKKRSYNLISNDSTFTQYRSWYLAYNYGDPQTGIRSWTLLCTPDVTCGSEQVYWSLPDMMQDPVTFRSTRQISNFPVVGAELLPVHSKSFYNDQAVYSQLIRQFTSLTHVFNRFPENQILARPPAPTITTVSENVPALTDHGTLPLRNSIGGVQRVTITDARRRTCPYVYKALGIVSPRVLSSRTFKKKKKKKKKK",reduction of HER2+ cell numbers,"MDA-MB-435 (HER2+); 0.5 μM with respect to Dox, by three days",over 75%
same,cell killing with free heregulin ligand as competitive inhibitor,"MDA-MB-435 (HER2+); eHRG at 10× molar excess, HerDox 0.5 μM",completely inhibited cell killing
same,loss of Dox from conjugate in whole blood,[1],no detectable loss of Dox from the conjugate
same,time fluorescence remained detectable in the tumors,HER2+ tumors; [3],up to 100 min
same,time of fluorescence accumulation at the tumors,HER2+ tumors; [3],≤ 20 min
same,fluorescence in kidneys,HER2+ tumors; [4],barely detectable
same,fluorescence in liver,HER2+ tumors; [4],substantially lower levels of fluorescence
same,"fluorescence in other tissues (heart, spleen, lungs, skeletal muscle)",HER2+ tumors; [4],did not exhibit any fluorescence
same,fluorescence in tumors,HER2+ tumors; [4],intense fluorescence in the tumors
same,cardiac function (echocardiograms),[2]; 25 days following injections,no effect on these measurements
same,liver and heart toxicity,[2]; systemic delivery in vivo,avoiding liver and heart toxicity
same,cells killed,JIMT-1 cell line,up to 90%
